Test results reported in publication PMC11339409.

Tests used:
[1] = molecular target: LUJV glycoprotein-1 (GP1) (Lujo virus (LUJV)); test: cryo-EM structure
[2] = molecular target: LUJV glycoprotein-2 (GP2) (Lujo virus (LUJV)); test: cryo-EM structure

Row | Substance | stoichiometry N [1] | stoichiometry N [2]
1 | LUJV glycoprotein-1 (GP1) (domain or fragment) | 3 | –
2 | LUJV glycoprotein-2 (GP2) (domain or fragment) | – | 3
